Measurements taken from IntAct's records for PubMed 9990021.

B1: X-linked retinitis pigmentosa GTPase regulator (Homo sapiens), Q92834-2 (parent)
chain: MREPEELMPDSGAVFTFGKSKFAENNPGKFWFKNDVPVHLSCGDEHSAVVTGNNKLYMFGSNNWGQLGLGSKSAISKPTCVKALKPEKVKLAACGRNHTLVSTEGGNVYATGGNNEGQLGLGDTEERNTFHVISFFTSEHKIKQLSAGSNTSAALTEDGRLFMWGDNSEGQIGLKNVSNVCVPQQVTIGKPVSWISCGYYHSAFVTTDGELYVFGEPENGKLGLPNQLLGNHRTPQLVSEIPEKVIQVACGGEHTVVLTENAVYTFGLGQFGQLGLGTFLFETSEPKVIENIRDQTISYISCGENHTALITDIGLMYTFGDGRHGKLGLGLENFTNHFIPTLCSNFLRFIVKLVACGGCHMVVFAAPHRGVAKEIEFDEINDTCLSVATFLPYSSLTSGNVLQRTLSARMRRRERERSPDSFSMRRTLPPIEGTLGLSACFLPNSVFPRCSERNLQESVLSEQDLMQPEEPDYLLDEMTKEAEIDNSSTVESLGETTDILNMTHIMSLNSNEKSLKLSPVQKQKKQQTIGELTQDTALTENDDSDEYEEMSEMKEGKACKQHVSQGIFMTQPATTIEAFSDEEVEIPEEKEGAEDSKGNGIEEQEVEANEENVKVHGGRKEKTEILSDDLTDKAEDHEFSKTEELKLEDVDEEINAENVESKKKTVGDDESVPTGYHSKTEGAERTNDDSSAETIEKKEKANLEERAICEYNENPKGYMLDDADSSSLEILENSETTPSKDMKKTKKIFLFKRVPSINQKIVKNNNEPLPEIKSIGDQIILKSDNKDADQNHMSQNHQNIPPTNTERRSKSCTIL

Variants of: B1
Conditions: with pde6d_mouse Pde6d

Row | Variant | effect of a mutation on the interaction
1 | G275S | disrupting interaction
2 | P235S | decreasing interaction
3 | C250R | disrupting interaction
4 | G215V | disrupting interaction
5 | H98Q | disrupting interaction
6 | F130C | disrupting interaction
